Measured values published in article PMC2173300 (The Journal of Cell Biology, 2002).

B1: 6His–Tem1p (natural protein)
chain: MATPSTGANNSIPAVRNQVEVQVGLVGDAQVGKTSLMVKYVQNIYDKEYTQTLGVNFLKRKVSIRSTDIIFSIMDLGGQREFINMLPIATVGSSVIIFLFDLTRPETLSSIKEWYRQAYGLNDSAIPILVGTKYDLLIDLDPEYQEQISRTSMKYAQVMNAPLIFCSTAKSINIQKIFKIALAKIFNLTLTIPEINEIGDPLLIYKHLGGQQHRHHNKSQDRKSHNIRKPSSSPSSKAPSPGVNT
B2: GST–Bfa1p^1–394 (domain or fragment)
chain: MSIRPLTLNGLDEPETSFEELNTTLPRFQSHETLTLEENVPPLSTSTYIPPPSSVGTSDTGTVFSNSTSAFWSNKQADDDQDMEVDQDDEFLNDFQEFQNKKDDFDDAIKTNFHLRNGCRTGPFKNDIFAEEFDRKLSLEDKPRLKQPRSMMELKPKRKLSNSVTSRNLRSGNSVRFKKSMPNLALVNPAIREEEEDEEREREDQREFNYKIDNDTQDTILAKFSSDDEGDFLTGFEELEGEAIDETISSNDKESADHPRFLKKSSSSLPLKISPAQYDIVKHDELLTPGLHRRQRDWNTQQELDSFKEKRSVRHCSNQNVQLNGPAKIKTIKQQIDHNTPMKKGSMIYNPKTMKWEGNENVLSKFSDVDTANRKALLIKNKLQRDADSKKQKY

Tests used:
[1] = molecular target: T1, GST–Cdc14p (budding yeast, UniProt Q00684 1-551); assay: pull-down
T1 sequence: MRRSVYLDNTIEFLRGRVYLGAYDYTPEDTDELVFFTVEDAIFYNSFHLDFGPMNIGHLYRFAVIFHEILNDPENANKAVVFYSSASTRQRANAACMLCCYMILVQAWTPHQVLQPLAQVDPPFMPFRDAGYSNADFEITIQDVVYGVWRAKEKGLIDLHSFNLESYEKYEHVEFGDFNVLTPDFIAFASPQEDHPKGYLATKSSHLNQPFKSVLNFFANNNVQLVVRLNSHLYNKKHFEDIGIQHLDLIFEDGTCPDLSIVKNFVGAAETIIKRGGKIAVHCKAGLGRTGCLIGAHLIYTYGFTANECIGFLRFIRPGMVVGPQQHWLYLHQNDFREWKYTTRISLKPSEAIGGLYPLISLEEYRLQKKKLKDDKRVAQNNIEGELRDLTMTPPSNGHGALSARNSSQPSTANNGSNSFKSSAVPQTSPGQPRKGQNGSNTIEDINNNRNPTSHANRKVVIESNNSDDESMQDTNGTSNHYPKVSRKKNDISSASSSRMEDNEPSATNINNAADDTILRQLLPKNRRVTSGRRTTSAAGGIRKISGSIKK

[2] = molecular target: T2, 6His–Cdc14p (budding yeast, UniProt Q00684 1-551); assay: pull-down
T2 sequence: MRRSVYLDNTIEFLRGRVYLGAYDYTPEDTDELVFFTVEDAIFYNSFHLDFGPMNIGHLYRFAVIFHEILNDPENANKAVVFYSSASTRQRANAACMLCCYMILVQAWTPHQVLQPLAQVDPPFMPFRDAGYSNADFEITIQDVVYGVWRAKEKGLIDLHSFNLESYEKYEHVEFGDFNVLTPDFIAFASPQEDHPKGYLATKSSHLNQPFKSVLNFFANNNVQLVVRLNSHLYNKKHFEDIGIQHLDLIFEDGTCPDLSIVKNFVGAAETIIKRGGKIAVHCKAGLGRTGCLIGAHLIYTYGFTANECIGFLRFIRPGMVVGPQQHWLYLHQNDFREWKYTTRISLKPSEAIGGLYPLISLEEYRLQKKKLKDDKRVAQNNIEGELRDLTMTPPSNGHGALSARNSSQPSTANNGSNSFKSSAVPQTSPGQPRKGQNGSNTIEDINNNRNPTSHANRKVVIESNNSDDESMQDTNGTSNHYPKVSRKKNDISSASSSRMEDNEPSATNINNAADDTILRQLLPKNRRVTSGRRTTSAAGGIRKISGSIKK

Binder	binding result [1]	binding result [2]
B1	binds	–
B2	–	binds
